Data published in the RNAGym collection of RNA variant scans (doi:10.7554/elife.80360).

B1: Twister Ribozyme (parent)
chain: AACACUGCCAAUGCCGGUCCCAAGCCCGGAUAAAAGUGGAGGGGGCGG

Variants of: B1
Assay: self-cleavage, relative activity (ratio to wild type); higher = more cleavage; co-transcriptional

Variant	self-cleavage
U12G U37A	0.576
G13A G45C	0.229
G13C G38A	0.219
G13C G38U	0.158
U12G G24C	0.0924
U12G G24A	0.177
U12A U18G	0.106
G13C A33C	0.236
G13C U37A	0.075
G13U C15G	0.108
G13U C15A	0.11
G13U C15U	0.317
G13C C15U	0.0748
G13A G43C	0.167
G13A G43U	0.182
U12G C27A	0.373
U12G C27G	0.136
U12G C27U	0.496
C14A A32G	0.857
U12A G45U	1.02
G13U G45A	0.308
U12C C46U	0.957
G13A C25G	0.0804
G13A C25U	0.387

Variant	self-cleavage
G13A C25A	0.0972
U12C C26A	0.658
U12C C26U	0.333
U12G G28A	0.799
U12G G28U	0.464
U12C U31C	0.938
U12G G47A	0.772
U12G G47U	0.703
G13C G42A	0.12
C14A G16A	0.641
C14A G16U	0.394
U12G C25G	0.486
U12C G47U	0.944
U12C G47C	0.497
G13C A23C	0.0801
G13C A23G	0.139
U12C G17A	0.532
U12C G41U	0.614
U12A G36U	0.794
U12A G38C	1.11
U12A G38A	1.08
U12C G13C	0.453
U12C G13U	0.659
U12C G13A	0.772

Variant	self-cleavage
C14A A22U	0.657
C14A A22G	0.407
C14A A22C	1.09
U12C A35C	1.08
G13C C25A	0.0747
U12G C15A	0.614
U12G C15G	0.115
G13U A30G	0.926
G13U A30C	0.665
G13U G44C	0.488
G13A A33U	1.01
G13C A22U	0.16
G13C A22G	0.103
C14A A33U	0.908
G13U G41A	0.0904
G13U G41U	0.104
U12C G36C	0.559
U12C G36U	0.543
G13C G17U	0.114
G13C G17C	0.0805
U12G A33G	0.809
U12G A33U	0.868
U12G G48A	0.593
U12G G48C	0.929

Variant	self-cleavage
G13A A40C	0.224
G13A A40U	0.209
G13U G28U	0.466
G13U G28A	0.543
U12C C25G	0.439
U12G G43A	0.399
G13U G16A	0.302
G13A A34C	0.173
G13A A34G	0.635
G13C G16C	0.044
G13C G16U	0.132
G13C G16A	0.129
G13U A22C	0.708
U12C G38A	0.929
U12C G38C	0.951
G13C G43U	0.128
G13C G36U	0.0844
G13U A33C	0.563
U12C G29A	0.988
U12C C21U	0.0795
U12C C21G	0.0654
C14A G29A	0.974
C14A G29U	0.903
C14A G29C	0.947

Variant	self-cleavage
U12G G38C	0.881
U12G G38U	0.76
U12G C19A	0.601
U12G C19G	0.686
U12C A22U	0.805
U12C A22C	0.861
G13A A32U	0.961
G13A A32G	0.882
G13A A23G	0.0799
G13A A23U	0.0933
U12G C46G	0.757
G13U G36A	0.13
G13U G36C	0.0949
U12A U37G	0.925
G13U C26G	0.0668
G13U C26U	0.109
G13A G41A	0.157
G13A G41C	0.17
G13A G41U	0.131
G13U G38C	0.6
G13U G38U	0.303
G13C C19A	0.0574
G13U C21U	0.0908
G13C A30C	0.518

Variant	self-cleavage
G13C A30U	0.612
U12G C20A	0.314
G13A A30C	0.771
G13A A30U	0.899
U12A G41C	0.264
U12A G41A	0.696
G13A U18G	0.0757
G13A U18C	0.129
U12G C14A	0.726
U12G C14G	0.124
U12G C14U	0.756
G13C G44A	0.584
C14A A34C	0.426
C14A A34G	0.88
U12G A35G	0.815
C14A G38A	0.874
C14A G38C	0.861
G13U U18A	0.0935
G13U U18G	0.0548
G13U U18C	0.0744
G13U A35C	0.587
G13U A35U	0.696
C14A C20U	0.977
U12G G17U	0.239

Variant	self-cleavage
G13A G28C	0.581
G13A G28A	0.579
G13A G28U	0.623
U12G G36C	0.475
U12G G36U	0.397
U12G G36A	0.64
G13A G42A	0.186
G13A G39U	0.171
G13A G39A	0.202
U12C A33C	0.876
U12C A33U	1.01
U12C A33G	1
U12G G45A	0.583
G13A G36C	0.118
G13A C14G	0.551
G13A C14U	0.8
G13U G43A	0.143
U12C G43A	0.243
U12C G43U	0.485
G13U C19U	0.0924
G13U C19A	0.0828
G13A G47U	0.446
G13U G48C	0.456
